Data: patent publication US20230002486A1 (SPARX THERAPEUTICS, published 2023)

How the values were obtained:
[1] = target: T1, CLDN 18.2 expressed on stably transfected cells (HEK293T-CLDN 18.2, MiaPaCa-CLDN 18.2) (human); experiment: cell-based or functional assay
[2] = target: T2, CLDN 18.2 fused with GFP at its C-terminal, on MCF7 cells (MCF7-CLDN 18.2) (human); experiment: cell-based or functional assay
[3] = target: T1, CLDN 18.2 expressed on stably …; experiment: cell-based or functional assay; remark: listed apart in the source
[4] = target: T2, CLDN 18.2 fused with GFP at its …; experiment: cell-based or functional assay; remark: listed apart in the source
[5] = target: claudin 18.2 (CLDN 18.2), recombinant protein (human); experiment: direct ELISA, coated CLDN 18.2 (FIG. 28A)
Chain of claudin 18.2 (CLDN 18.2), recombinant protein (human) (chain, as listed by the source limits assumed): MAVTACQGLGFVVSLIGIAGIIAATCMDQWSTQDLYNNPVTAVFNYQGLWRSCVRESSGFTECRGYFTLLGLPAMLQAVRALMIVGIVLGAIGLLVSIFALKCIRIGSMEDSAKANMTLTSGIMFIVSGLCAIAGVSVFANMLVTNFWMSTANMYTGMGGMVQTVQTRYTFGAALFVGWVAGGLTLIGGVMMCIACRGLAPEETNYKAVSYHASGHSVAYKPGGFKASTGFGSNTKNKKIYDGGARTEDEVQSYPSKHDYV

[6] = target: claudin 18.2 (CLDN 18.2), recombinant protein (human); experiment: direct ELISA, coated recombinant CLDN 18.2
Description: ELISA assay was employed to determine the binding properties of the bispecific antibodies to their antigens. […] The wells were then reacted with goat anti human IgG antibody conjugated with horseradish peroxidase (HRP).

[7] = target: claudin 18.2 (CLDN 18.2), recombinant protein (human); experiment: direct ELISA, coated recombinant CLDN 18.2 (FIG. 7A)

T1 sequence (chain, as listed by the source limits assumed): as above
T2 sequence (chain, as listed by the source): as the sequence (chain, as listed by the source limits assumed) above

ADCC reporter assay, EC50 (FIG. 18) [1]: 0.0561 nM
CDC against Mia Paca-CLDN 18.2 cells, EC50 (FIG. 17B) [1]: 0.52 nM
ADCC reporter assay, EC50 (FIG. 24A) [2]: 0.00443 nM
ADCC Reporter in HEK293-CLDN18.2, EC50 [3]: 0.056 nM
CDC in HEK293-CLDN 18.2, EC50 [3]: 0.43 nM
CDC in MiaPaCa-CLDN 18.2, EC50 [3]: 0.52 nM
ADCC Reporter in MCF7-CLDN 18.2, EC50 [4]: 0.006 nM
Kd [5]: 0.0819 nM
Kd [6]: 0.13 nM
Kd [7]: 0.133 nM
B1: h5C9ob, monospecific parent anti-CLDN 18.2 monoclonal antibody (IgG) (antibody, V domains shown)
VH: EVQLVESGGGLVQPGGSLRLSCAVSGYTFSMNWVRQAPGKGLEWVAWINMYTGEPTYADDFKGRFTISRDDSKNTLYLQMNSLRAEDTAVYYCARLYNGNSLDYWGQGTLVTVSS
VL: DIQMTQSPSSLSASVGDRVTITCKSSQSLLNSGNQKSYLTWYQQKPGKAPKLLIYWASTLESGVPSRFSGSGSGTDYTLTISSLQPEDFATYYCQNAYFFPFTFGQGTKVEIKR
notes: Whole human IgG1 produced as described under 'Production of Recombinant Antibodies'
